Legend:
HeLa Kyoto [1] = test: solubility change mitosis vs G1/S (difference of NP-40 vs SDS log2 ratios) (log2 ratio difference); higher = more soluble in mitosis
HeLa Kyoto [2] = test: thermal stability score vs G1/S (z-score of summed log2 fold changes over temperatures); higher = more thermally stable than in G1/S
HeLa Kyoto [3] = test: melting temperature (median over replicates), in situ; higher = more thermally stable
HeLa Kyoto [4] = test: solubility in G1/S (NP-40 vs SDS abundance) (log2 ratio); higher = more soluble; details: cell cycle stage: G1/S
[5] = cell cycle stage: early G1 (4.5 h after nocodazole release)
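For melting temperature (median over replicates), in situ in this document: HeLa Kyoto cells synchronized by double thymidine or nocodazole block, proteins quantified by TMT10plex mass spectrometry, three independent biological replicates.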
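For solubility change mitosis vs G1/S (difference of NP-40 vs SDS log2 ratios) in this document: synchronized HeLa Kyoto cells (double thymidine block for G1/S, nocodazole release for mitosis), protein amounts in NP-40 versus SDS lysates quantified by mass spectrometry, three biological replicates.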
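For solubility in G1/S (NP-40 vs SDS abundance) in this document: HeLa Kyoto cells arrested at G1/S by double thymidine block, proteins quantified by TMT10plex mass spectrometry in mild NP-40 versus SDS extracts, three biological replicates.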
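For thermal stability score vs G1/S (z-score of summed log2 fold changes over temperatures) in this document: synchronized HeLa Kyoto cells, proteins quantified by TMT10plex mass spectrometry, three biological replicates, mitosis taken 0.5 h after nocodazole release, G1/S directly after double thymidine block.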

Sequence	solubility change mitosis (log2) (HeLa Kyoto [1])	thermal stability score (HeLa Kyoto [2]; [5])	thermal stability score (HeLa Kyoto [2]; cell cycle stage: mitosis)	melting temperature (HeLa Kyoto [3]; cell cycle stage: G1/S) [°C]	melting temperature (HeLa Kyoto [3]; cell cycle stage: mitosis) [°C]	solubility in G1/S (log2) (HeLa Kyoto [4])
MAAVKEPLEFHAKRPWRPEEAVEDPDEEDEDNTSEAENGFSLEEVLRLGGTKQDYLMLATLDENEEVIDGGKKGAIDDLQQGELEAFIQNLNLAKYTKASLVEEDEPAEKENSSKKEVKIPKINNKNTAESQRTSVNKVKNKNRPEPHSDENGSTTPKVKKDKQNIFEFFERQTLLLRPGGKWYDLEYSNEYSLKPQPQDVVSKYKTLAQKLYQHEINLFKSKTNSQKGASSTWMKAIVSSGTLGDRMAAMILLIQDDAVHTLQFVETLVNLVKKKGSKQQCLMALDTFKELLITDLLPDNRKLRIFSQRPFDKLEQLSSGNKDSRDRRLILWYFEHQLKHLVAEFVQVLETLSHDTLVTTKTRALTVAHELLCNKPEEEKALLVQVVNKLGDPQNRIATKASHLLETLLCKHPNMKGVVSGEVERLLFRSNISSKAQYYAICFLNQMALSHEESELANKLITVYFCFFRTCVKKKDVESKMLSALLTGVNRAYPYSQTGDDKVREQIDTLFKVLHIVNFNTSVQALMLLFQVMNSQQTISDRYYTALYRKMLDPGLMTCSKQAMFLNLVYKSLKADIVLRRVKAFVKRLLQVTCQQMPPFICGALYLVSEILKAKPGLRSQLDDHPESDDEENFIDANDDEDMEKFTDADKETEIVKKLETEETVPETDVETKKPEVASWVHFDNLKGGKQLNKYDPFSRNPLFCGAENTSLWELKKLSVHFHPSVALFAKTILQGNYIQYSGDPLQDFTLMRFLDRFVYRNPKPHKGKENTDSVVMQPKRKHFIKDIRHLPVNSKEFLAKEESQIPVDEVFFHRYYKKVAVKEKQKRDADEESIEDVDDEEFEELIDTFEDDNCFSSGKDDMDFAGNVKKRTKGAKDNTLDEDSEGSDDELGNLDDDEVSLGSMDDEEFAEVDEDGGTFMDVLDDESESVPELEVHSKVSTKKSKRKGTDDFDFAGSFQGPRKKKRNLNDSSLFVSAEEFGHLLDENMGSKFDNIGMNAMANKDNASLKQLRWEAERDDWLHNRDAKSIIKKKKHFKKKRIKTTQKTKKQRK [CEBPZ]	1.14	1.59	1.76	49.8	50.1	-1.9
MAAVQMDPELAKRLFFEGATVVILNMPKGTEFGIDYNSWEVGPKFRGVKMIPPGIHFLHYSSVDKANPKEVGPRMGFFLSLHQRGLTVLRWSTLREEVDLSPAPESEVEAMRANLQELDQFLGPYPYATLKKWISLTNFISEATVEKLQPENRQICAFSDVLPVLSMKHTKDRVGQNLPRCGIECKSYQEGLARLPEMKPRAGTEIRFSELPTQMFPEGATPAEITKHSMDLSYALETVLNKQFPSSPQDVLGELQFAFVCFLLGNVYEAFEHWKRLLNLLCRSEAAMMKHHTLYINLISILYHQLGEIPADFFVDIVSQDNFLTSTLQVFFSSACSIAVDATLRKKAEKFQAHLTKKFRWDFAAEPEDCAPVVVELPEGIEMG [AAR2]	-0.266	0.316	1.07	50.2	50.4	0.0362
MAAVSGLVRRPLREVSGLLKRRFHWTAPAALQVTVRDAINQGMDEELERDEKVFLLGEEVAQYDGAYKVSRGLWKKYGDKRIIDTPISEMGFAGIAVGAAMAGLRPICEFMTFNFSMQAIDQVINSAAKTYYMSGGLQPVPIVFRGPNGASAGVAAQHSQCFAAWYGHCPGLKVVSPWNSEDAKGLIKSAIRDNNPVVVLENELMYGVPFEFPPEAQSKDFLIPIGKAKIERQGTHITVVSHSRPVGHCLEAAAVLSKEGVECEVINMRTIRPMDMETIEASVMKTNHLVTVEGGWPQFGVGAEICARIMEGPAFNFLDAPAVRVTGADVPMPYAKILEDNSIPQVKDIIFAIKKTLNI [PDHB]	-0.117	-1.24	-2.38	51.7	51.4	0.196
MAAWGCVAALGAARGLCWRAARAAAGLQGRPARRCYAVGPAQSPPTFGFLLDIDGVLVRGHRVIPAALKAFRRLVNSQGQLRVPVVFVTNAGNILQHSKAQELSALLGCEVDADQVILSHSPMKLFSEYHEKRMLVSGQGPVMENAQGLGFRNVVTVDELRMAFPLLDMVDLERRLKTTPLPRNDFPRIEGVLLLGEPVRWETSLQLIMDVLLSNGSPGAGLATPPYPHLPVLASNMDLLWMAEAKMPRFGHGTFLLCLETIYQKVTGKELRYEGLMGKPSILTYQYAEDLIRRQAERRGWAAPIRKLYAVGDNPMSDVYGANLFHQYLQKATHDGAPELGAGGTRQQQPSASQSCISILVCTGVYNPRNPQSTEPVLGGGEPPFHGHRDLCFSPGLMEASHVVNDVNEAVQLVFRKEGWALE [CECR5]	-0.159	0.291	1.28	50.8	50.2	0.262
MAAYKLVLIRHGESAWNLENRFSGWYDADLSPAGHEEAKRGGQALRDAGYEFDICFTSVQKRAIRTLWTVLDAIDQMWLPVVRTWRLNERHYGGLTGLNKAETAAKHGEAQVKIWRRSYDVPPPPMEPDHPFYSNISKDRRYADLTEDQLPSCESLKDTIARALPFWNEEIVPQIKEGKRVLIAAHGNSLRGIVKHLEGLSEEAIMELNLPTGIPIVYELDKNLKPIKPMQFLGDEETVRKAMEAVAAQGKAKK [PGAM1]	-0.15	-0.0829	-2.07	55.7	57.8	0.324
MACAAARSPADQDRFICIYPAYLNNKKTIAEGRRIPISKAVENPTATEIQDVCSAVGLNVFLEKNKMYSREWNRDVQYRGRVRVQLKQEDGSLCLVQFPSRKSVMLYAAEMIPKLKTRTQKTGGADQSLQQGEGSKKGKGKKKK [SRP19]	0.161	0.816	-0.116	50.8	50.8	0.299

— the supplement of paper PMC5998384
